From patent US20210032299A1 (Eli Lilly, published 2021)
Starred links: 1 amine or outer side, 2 acyl side, 3 side chain; linkers in the order of their positions; H or OH if unused. Non-standard residues stand in square brackets, D forms with d. Groups on a side chain read outwards from the residue. No end group written: not given here. *: point of attachment. C20 diacid = O=C(O)CCCCCCCCCCCCCCCCCCC(=O)*; γGlu = O=C(O)[C@H](CCC(=O)[*:2])N[*:1]; αMeY = C[C@](N)(Cc1ccc(O)cc1)C(=O)O; 4Pal = N[C@@H](Cc1ccncc1)C(=O)O; αMeL = CC(C)C[C@](C)(N)C(=O)O; AEEA = NCCOCCOCC(=O)O; Aib = CC(C)(N)C(=O)O

T1: human glucose-dependent insulinotropic polypeptide (GIP) receptor (human, UniProt P48546 22-466)
T1 construct: whole, on cells; Assayed as crude membranes of stably transfected CHO cells; also called hGIPR; human GIP receptor
T1 sequence (looked up): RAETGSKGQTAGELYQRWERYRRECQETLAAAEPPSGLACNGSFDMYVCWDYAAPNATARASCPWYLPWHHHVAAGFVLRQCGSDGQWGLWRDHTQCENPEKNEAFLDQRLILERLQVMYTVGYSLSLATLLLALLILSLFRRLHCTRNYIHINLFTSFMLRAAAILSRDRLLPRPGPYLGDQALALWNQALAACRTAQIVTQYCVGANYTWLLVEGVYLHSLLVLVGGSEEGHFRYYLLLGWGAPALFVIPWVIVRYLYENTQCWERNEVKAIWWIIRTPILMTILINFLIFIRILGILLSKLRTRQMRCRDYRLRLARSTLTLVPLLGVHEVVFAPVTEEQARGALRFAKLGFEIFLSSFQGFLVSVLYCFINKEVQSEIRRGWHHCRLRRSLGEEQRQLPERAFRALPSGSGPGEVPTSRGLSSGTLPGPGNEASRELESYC

B1: Example 89 (peptide)
peptide: Y[Aib]EGTLISDYSI[αMeL]LDKK([AEEA-AEEA-γGlu-C20 diacid])HQ[Aib]DFVE[4Pal]LLEAGPSSGAPPPS-NH2
modifications: N-terminus assumed
SMILES: CC[C@H](C)[C@H](NC(=O)[C@H](CC(C)C)NC(=O)[C@@H](NC(=O)CNC(=O)[C@H](CCC(=O)O)NC(=O)C(C)(C)NC(=O)[C@@H](N)Cc1ccc(O)cc1)[C@@H](C)O)C(=O)N[C@@H](CO)C(=O)N[C@@H](CC(=O)O)C(=O)N[C@@H](Cc1ccc(O)cc1)C(=O)N[C@@H](CO)C(=O)N[C@H](C(=O)N[C@@](C)(CC(C)C)C(=O)N[C@@H](CC(C)C)C(=O)N[C@@H](CC(=O)O)C(=O)N[C@@H](CCCCN)C(=O)N[C@@H](CCCCNC(=O)COCCOCCNC(=O)COCCOCCNC(=O)CC[C@H](NC(=O)CCCCCCCCCCCCCCCCCCC(=O)O)C(=O)O)C(=O)N[C@@H](Cc1c[nH]cn1)C(=O)N[C@@H](CCC(N)=O)C(=O)NC(C)(C)C(=O)N[C@@H](CC(=O)O)C(=O)N[C@@H](Cc1ccccc1)C(=O)N[C@H](C(=O)N[C@@H](CCC(=O)O)C(=O)N[C@@H](Cc1ccncc1)C(=O)N[C@@H](CC(C)C)C(=O)N[C@@H](CC(C)C)C(=O)N[C@@H](CCC(=O)O)C(=O)N[C@@H](C)C(=O)NCC(=O)N1CCC[C@H]1C(=O)N[C@@H](CO)C(=O)N[C@@H](CO)C(=O)NCC(=O)N[C@@H](C)C(=O)N1CCC[C@H]1C(=O)N1CCC[C@H]1C(=O)N1CCC[C@H]1C(=O)N[C@@H](CO)C(N)=O)C(C)C)[C@@H](C)CC
B2: Example 90 (peptide)
peptide: Y[Aib]EGTFISDYSI[αMeL]LDKK([AEEA-AEEA-γGlu-C20 diacid])HQ[Aib]DFVE[αMeY]LLEAGPSSGAPPPS-NH2
modifications: N-terminus assumed
SMILES: CC[C@H](C)[C@H](NC(=O)[C@H](Cc1ccccc1)NC(=O)[C@@H](NC(=O)CNC(=O)[C@H](CCC(=O)O)NC(=O)C(C)(C)NC(=O)[C@@H](N)Cc1ccc(O)cc1)[C@@H](C)O)C(=O)N[C@@H](CO)C(=O)N[C@@H](CC(=O)O)C(=O)N[C@@H](Cc1ccc(O)cc1)C(=O)N[C@@H](CO)C(=O)N[C@H](C(=O)N[C@@](C)(CC(C)C)C(=O)N[C@@H](CC(C)C)C(=O)N[C@@H](CC(=O)O)C(=O)N[C@@H](CCCCN)C(=O)N[C@@H](CCCCNC(=O)COCCOCCNC(=O)COCCOCCNC(=O)CC[C@H](NC(=O)CCCCCCCCCCCCCCCCCCC(=O)O)C(=O)O)C(=O)N[C@@H](Cc1c[nH]cn1)C(=O)N[C@@H](CCC(N)=O)C(=O)NC(C)(C)C(=O)N[C@@H](CC(=O)O)C(=O)N[C@@H](Cc1ccccc1)C(=O)N[C@H](C(=O)N[C@@H](CCC(=O)O)C(=O)N[C@@](C)(Cc1ccc(O)cc1)C(=O)N[C@@H](CC(C)C)C(=O)N[C@@H](CC(C)C)C(=O)N[C@@H](CCC(=O)O)C(=O)N[C@@H](C)C(=O)NCC(=O)N1CCC[C@H]1C(=O)N[C@@H](CO)C(=O)N[C@@H](CO)C(=O)NCC(=O)N[C@@H](C)C(=O)N1CCC[C@H]1C(=O)N1CCC[C@H]1C(=O)N1CCC[C@H]1C(=O)N[C@@H](CO)C(N)=O)C(C)C)[C@@H](C)CC

Columns and labels:
[1] = target: T1, human glucose-dependent insulinotropic …; assay: SPA, displacement of [125I]-GIP from hGIPR membranes, 0.1% bacitracin
human glucagon receptor = target: T2, human glucagon receptor (human, UniProt P47871 26-477); assay: SPA, displacement of [125I]-Gcg from hGcgR membranes, 0.1% bacitracin
T2 construct: whole, on cells; Assayed as crude membranes of stably transfected HEK293 cells; also called hGcgR; GcgR
T2 sequence (P47871 26-477): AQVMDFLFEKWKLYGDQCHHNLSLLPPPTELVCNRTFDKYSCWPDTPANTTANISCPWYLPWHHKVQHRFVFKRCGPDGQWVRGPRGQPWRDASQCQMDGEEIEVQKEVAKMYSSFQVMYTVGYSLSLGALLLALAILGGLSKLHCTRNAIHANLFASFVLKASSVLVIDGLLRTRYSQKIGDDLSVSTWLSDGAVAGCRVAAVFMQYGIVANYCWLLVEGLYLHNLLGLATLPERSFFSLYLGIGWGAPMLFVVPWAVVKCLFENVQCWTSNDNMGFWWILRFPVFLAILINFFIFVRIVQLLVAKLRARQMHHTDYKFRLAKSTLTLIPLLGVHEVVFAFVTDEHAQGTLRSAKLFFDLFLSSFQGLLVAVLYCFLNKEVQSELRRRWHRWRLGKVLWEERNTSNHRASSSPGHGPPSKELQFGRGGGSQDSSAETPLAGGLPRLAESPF
Procedure, shortened: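 Binding buffer: 25 mM HEPES pH 7.4, 2.5 mM CaCl₂, 1 mM MgCl₂, 0.003% Tween-20, protease inhibitors without EDTA. Counted by scintillation after 12 h incubation/settling at room temperature. Four-parameter nonlinear fit; Kᵢ given as geometric mean ± SEM of independent replicates run on different days.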

human GLP-1 receptor = target: T3, human GLP-1 receptor (human, UniProt P43220 24-463); assay: SPA, displacement of [125I]-GLP-1 from hGLP-1R membranes, 0.1% bacitracin
T3 construct: whole, on cells; Assayed as crude membranes of stably transfected HEK293 cells; also called hGLP1R; hGLP-1R
Procedure, shortened: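 Binding buffer: 25 mM HEPES pH 7.4, 2.5 mM CaCl₂, 1 mM MgCl₂, 0.1% bacitracin, 0.003% Tween-20, protease inhibitors without EDTA. Four-parameter nonlinear regression; Kᵢ given as geometric mean ± SEM, n = independent replicates run on different days.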

Row | Binder | Ki [1] | Ki (human glucagon receptor) | Ki (human GLP-1 receptor)
1 | B1 | 0.072 nM | 611 nM | 294 nM
2 | B2 | 0.129 nM | 112 nM | 102 nM
